# Measured values from patent US6323001A, “Increasing the trehalose content of organisms by transforming them with combinations of the structural genes for trehalose synthase” (BTG International Ltd., priority 1994, dated 2001).
# B1: TPS activator: TPS activator from S. cerevisiae, identical to yeast phosphoglucoisomerase (protein, UniProt P12709 2-554, looked up)
# Glucose-6-phosphate isomerase: SNNSFTNFKLATELPAWSKLQKIYESQGKTLSVKQEFQKDAKRFEKLNKTFTNYDGSKILFDYSKNLVNDEIIAALIELAKEANVTGLRDAMFKGEHINSTEDRAVYHVALRNRANKPMYVDGVNVAPEVDSVLKHMKEFSEQVRSGEWKGYTGKKITDVVNIGIGGSDLGPVMVTEALKHYAGVLDVHFVSNIDGTHIAETLKVVDPETTLFLIASKTFTTAETITNANTAKNWFLSKTGNDPSHIAKHFAALSTNETEVAKFGIDTKNMFGFESWVGGRYSVWSAIGLSVALYIGYDNFEAFLKGAEAVDNHFTQTPLEDNIPLLGGLLSVWYNNFFGAQTHLVAPFDQYLHRFPAYLQQLSMESNGKSVTRGNVFTDYSTGSILFGEPATNAQHSFFQLVHQGTKLIPSDFILAAQSHNPIENKLHQKMLASNFFAQAEALMVGKDEEQVKAEGATGGLVPHKVFSGNRPTTSILAQKITPATLGALIAYYEHVTFTEGAIWNINSFDQWGVELGKVLAKVIGKELDNSSTISTHDASTNGLINQFKEWM
# System: phosphoglucoisomerase (PGI) activity
# Assay: PGI activity of TPS activator
# Format: biochemical, S. cerevisiae
# Settings: 50 mM HEPES/KOH pH 7.0, 5 mM MgCl2, 5 mM F6P; stored several months at 0° C.
# Procedure: The PGI activity of a sample of TPS activator that had been stored for several months at 0° C. was measured in 50 mM HEPES/KOH pH 7.0, 5 mM MgCl2, 5 mM F6P and 0.4 mg/ml NADP. A specific activity of 190 U/mg was found.
molecule,measurement,value
B1,PGI specific activity,190 U/mg
